The values below come from publication PMC7190724, “Improved GPCR ligands from nanobody tethering” (Nature Communications, 2020).

In assay [1] the test system is rat PTHR1 (rPTHR1). The assay can be described thus: Flow cytometry binding of VHH-Alexafluor647 to HEK293 expressing rat PTHR1. The note with it: 100 nM VHH-Alexafluor647, on ice. The procedure:
(§1) Fig. 3 Binding of VHHs to HEK293 cell lines stably transfected with PTHRs. a Analysis of VHH binding to PTHR1, PTHR2 and variants by flow cytometry. HEK293 cell lines in suspension were incubated on ice with 100 nM VHH sortagged with Alexafluor647, pelleted by centrifugation, washed and analyzed. Data for PTHR1-GFP is found in Supplementary Fig. 1. b Analysis of VHH binding with microscopy. Adherent HEK293 cells expressing human PTHR1 were stained on ice with 50 nM VHHPTHR-tetramethylrhodamine (TMR, red) and 30 nM PTH(1-20)-fluorescein (FAM, green) for 30 min. Following staining, cells were washed and treated with fixative in preparation for image acquisition either immediately after staining (0 min) or following a 15-min incubation in medium at room temperature (15 min). Nuclei (blue) were stained with DAPI. The scale bar (20 μm) is at the bottom left image and is applicable to each image in this panel. This experiment was repeated twice with similar results.
(§2) Suspensions of cells in PBS were stained for 1 h on ice in the presence of indicated concentrations of VHH probes functionalized with Alexafluor647. Cells were pelleted by centrifugation and washed with PBS prior to analysis by flow cytometry (BD Accuri C6). […] Data were analyzed using FlowJo version 7.6. […]

In assay [2] the test system is PTHR1. In words: Flow cytometry binding to HEK293 expressing human PTHR1. The note with it: flow cytometry MFI, VHH-Alexafluor647, 1 h on ice; no plateau, estimate. The text has this:
Cells were pelleted by centrifugation and washed with PBS prior to analysis by flow cytometry (BD Accuri C6).
Supplementary Figure 4. […] Cells
(§3) (1 picture or pasted object on this page, not shown here)

In assay [3] the target is T1, PTHR1GFP (Homo sapiens, UniProt Q03431).
T1 sequence (Q03431 27-593): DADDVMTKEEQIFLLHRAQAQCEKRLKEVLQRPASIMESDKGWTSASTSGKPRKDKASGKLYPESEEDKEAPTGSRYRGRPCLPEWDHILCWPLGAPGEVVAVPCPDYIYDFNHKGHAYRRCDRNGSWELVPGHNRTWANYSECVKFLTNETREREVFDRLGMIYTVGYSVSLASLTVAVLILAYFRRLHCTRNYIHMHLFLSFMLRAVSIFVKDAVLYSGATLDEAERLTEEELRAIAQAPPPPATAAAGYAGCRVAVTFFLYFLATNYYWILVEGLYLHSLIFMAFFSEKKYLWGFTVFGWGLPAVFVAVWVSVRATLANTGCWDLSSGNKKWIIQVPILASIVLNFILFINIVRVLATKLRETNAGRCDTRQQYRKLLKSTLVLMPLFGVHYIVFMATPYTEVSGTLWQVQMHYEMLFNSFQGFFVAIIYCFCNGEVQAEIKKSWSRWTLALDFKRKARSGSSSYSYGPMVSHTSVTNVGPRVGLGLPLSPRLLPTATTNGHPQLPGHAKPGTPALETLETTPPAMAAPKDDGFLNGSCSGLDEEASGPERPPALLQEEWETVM
The assay can be described thus: Flow cytometry binding of VHH-Alexafluor647 to HEK293 expressing PTHR1GFP. The note with it: flow cytometry MFI, VHH-Alexafluor647, 1 h on ice; no plateau, estimate. The procedure:
(§4) Suspensions of cells in PBS were stained for 1 h on ice in the presence of indicated concentrations of VHH probes functionalized with Alexafluor647. Cells were pelleted by centrifugation and washed with PBS prior to analysis by flow cytometry (BD Accuri C6). To select intact cells gating was performed on forward scatter/side scatter profiles for analysis (see Supplementary Fig. 4 for an example of the gating strategy). Data were analyzed using FlowJo version 7.6. The median fluorescent intensity (MFI) of stained cells was used to generate VHH binding dose response curves (Supplementary Fig. 4).
Supplementary Figure 1. […] HEK293 cell lines in suspension were incubated on ice with 100 nM VHH sortagged with Alexafluor647, pelleted by centrifugation, washed and analyzed. […]
PTHR1GFP. This weak staining is likely related to the inability of VHHGFP to tightly bind the pH-sensitive GFP variant known as pHluorin2 engrafted into the receptor(ref. 19, main text). c) HEK293 cells stably expressing PTHR1-GFP were treated with varied doses of the indicated peptides or conjugates and activation was assessed by measuring luminescence from a cAMP-activated luciferase variant. […]
Supplementary Figure 4. […] Cells were centrifuged, washed, and analyzed by flow cytometry via gating of intact cells (live gate) based on forward scatter/side scatter profiles (panel a). […]

For assay [4], the system named is PTHR1_6E. The assay can be described thus: Flow cytometry binding of VHH-Alexafluor647 to HEK293 expressing PTHR1_6E. The arrangement: species or system human. The note with it: flow cytometry MFI, VHH-Alexafluor647, 1 h on ice. The procedure:
as §4
Supplementary Figure 4. Assessment of VHH binding to PTHR1 variants by flow cytometry. Cells dislodged from tissue culture plates using trypsinization were incubated with varied concentrations of VHHs sortagged with AlexaFluor647 on ice for 1 h. Cells were centrifuged, washed, and analyzed by flow cytometry via gating of intact cells (live gate) based on forward scatter/side scatter profiles (panel a). (b) Data points represent median fluorescent intensity values ( individual data points shown, n = 2 independent replicates per condition). Connecting curves are the result of fitting a sigmoidal dose - response model to the data points. Precise estimates for VHH PTHR binding cannot be provided since the […]
as §3
Background: A flow cytometer gives signals particle by particle.

The test system of assay [5] is PTHR2. The assay can be described thus: Flow cytometry binding of VHH-Alexafluor647 to HEK293 expressing PTHR2. The arrangement: species or system human. The note with it: 100 nM VHH-Alexafluor647, on ice. The procedure: as §1, §2

B1: VHHPTHR: nanobody that recognizes PTHR1 itself, sequence from the literature (named 22A3) (antibody, V domains shown)
VH: EVQLVESGGGLVQAGGSLRLSCAASGNIFANNIMGWYRQPPGKEREFVAHVSHDGDSMYAVSVKGRFAISRKDATNLYLQMNSLKPEDTAIYFCRLLNIPTQGRMEGFWGQGTQVTVSS
Turning to B1, the “staining of cells” value in assay [1] is given as “bound”; in assay [5], “binds to PTHR1 but not PTHR2”. Further, the half-maximal staining concentration in assay [2], in assay [3] and in assay [4] was 100 to 200 nM in each case.
